# Article PMC10724065, “Evolution of a plant growth-regulatory protein interaction specificity” (Nature Plants, 2023)
# B1: Arabidopsis thaliana AtSLY1 (yeast bait fusion) [Arabidopsis thaliana] / A. thaliana RGA (yeast prey fusion) [Arabidopsis thaliana] (parent complex)
# chain 1: MKRSTTDSDLAGDAHNETNKKMKSTEEEEIGFSNLDENLVYEVLKHVDAKTLAMSSCVSKIWHKTAQDERLWELICTRHWTNIGCGQNQLRSVVLALGGFRRLHSLYLWPLSKPNPRARFGKDELKLTLSLLSIRYYEKMSFTKRPLPESK
# chain 2: MKRDHHQFQGRLSNHGTSSSSSSISKDKMMMVKKEEDGGGNMDDELLAVLGYKVRSSEMAEVALKLEQLETMMSNVQEDGLSHLATDTVHYNPSELYSWLDNMLSELNPPPLPASSNGLDPVLPSPEICGFPASDYDLKVIPGNAIYQFPAIDSSSSSNNQNKRLKSCSSPDSMVTSTSTGTQIGGVIGTTVTTTTTTTTAAGESTRSVILVDSQENGVRLVHALMACAEAIQQNNLTLAEALVKQIGCLAVSQAGAMRKVATYFAEALARRIYRLSPPQNQIDHCLSDTLQMHFYETCPYLKFAHFTANQAILEAFEGKKRVHVIDFSMNQGLQWPALMQALALREGGPPTFRLTGIGPPAPDNSDHLHEVGCKLAQLAEAIHVEFEYRGFVANSLADLDASMLELRPSDTEAVAVNSVFELHKLLGRPGGIEKVLGVVKQIKPVIFTVVEQESNHNGPVFLDRFTESLHYYSTLFDSLEGVPNSQDKVMSEVYLGKQICNLVACEGPDRVERHETLSQWGNRFGSSGLAPAHLGSNAFKQASMLLSVFNSGQGYRVEESNGCLMLGWHTRPLITTSAWKLSTAAY
# B2: Arabidopsis thaliana AtSLY1 (yeast bait fusion) [Arabidopsis thaliana] / A. thaliana GAI (yeast prey fusion) [Arabidopsis thaliana] (parent complex)
# chain 1: B1 chain 1
# chain 2: MKRDHHHHHHQDKKTMMMNEEDDGNGMDELLAVLGYKVRSSEMADVAQKLEQLEVMMSNVQEDDLSQLATETVHYNPAELYTWLDSMLTDLNPPSSNAEYDLKAIPGDAILNQFAIDSASSSNQGGGGDTYTTNKRLKCSNGVVETTTATAESTRHVVLVDSQENGVRLVHALLACAEAVQKENLTVAEALVKQIGFLAVSQIGAMRKVATYFAEALARRIYRLSPSQSPIDHSLSDTLQMHFYETCPYLKFAHFTANQAILEAFQGKKRVHVIDFSMSQGLQWPALMQALALRPGGPPVFRLTGIGPPAPDNFDYLHEVGCKLAHLAEAIHVEFEYRGFVANTLADLDASMLELRPSEIESVAVNSVFELHKLLGRPGAIDKVLGVVNQIKPEIFTVVEQESNHNSPIFLDRFTESLHYYSTLFDSLEGVPSGQDKVMSEVYLGKQICNVVACDGPDRVERHETLSQWRNRFGSAGFAAAHIGSNAFKQASMLLALFNGGEGYRVEESDGCLMLGWHTRPLIATSAWKLSTN
# Variants of: B1
# Test: yeast 2-hybrid; read off a plot
row,response,Variant
1,~24 β-galactosidase units,chain 1 T128A
2,~1.3 β-galactosidase units,chain 1 T128S
3,~3.9 β-galactosidase units,chain 1 K126N
4,~0.6 β-galactosidase units,chain 1 K126T
5,~3.7 β-galactosidase units,chain 1 E138K
6,~3.6 β-galactosidase units,chain 1 P114S
7,~1.5 β-galactosidase units,chain 1 P114L
8,~55 β-galactosidase units,chain 1 H104Y

# Variants of: B2
# Test: yeast 2-hybrid; parent: 0.35; read off a plot
row,response,Variant
1,~94 β-galactosidase units,chain 1 P114R
2,~89 β-galactosidase units,chain 1 P114A
3,~55 β-galactosidase units,chain 1 P114S
4,~77 β-galactosidase units,chain 1 P114H
5,~34 β-galactosidase units,chain 1 P114T
6,~63 β-galactosidase units,chain 1 P114L

# Variants of: B2
# Test: yeast 2-hybrid; parent: 0.3; read off a plot
row,response,Variant
1,~41 β-galactosidase units,chain 1 P114S
2,~37 β-galactosidase units,chain 1 P114L
3,~44 β-galactosidase units,chain 1 T128S
4,~86 β-galactosidase units,chain 1 T128A
5,~120 β-galactosidase units,chain 1 H104Y
6,~51 β-galactosidase units,chain 1 K126N
7,~24 β-galactosidase units,chain 1 K126T
8,~19 β-galactosidase units,chain 1 K126E
9,~15 β-galactosidase units,chain 1 E138K

# Variants of: B2
# Test: yeast 2-hybrid; parent: 0.35; read off a plot
# Remark: another data set of the same source
row,response,Variant
1,~25 β-galactosidase units,chain 1 P114L
2,~160 β-galactosidase units,"chain 1 H104Y, chain 1 E138K"
3,~77 β-galactosidase units,chain 1 T128A
4,~77 β-galactosidase units,"chain 1 P114L, chain 1 E138K"
5,~99 β-galactosidase units,chain 1 H104Y
6,~110 β-galactosidase units,"chain 1 T128A, chain 1 E138K"
7,~17 β-galactosidase units,chain 1 E138K

# Variants of: B2
# Test: pull-down (IP: His, immunoblot); without GST-GID1C, without GA3 (GAI in A Form); parent: 1
row,ratio to parent,Variant
1,1.89,chain 1 P114L
2,2.27,chain 1 T128A
3,5.65,chain 1 H104Y
4,1.86,chain 1 E138K

# Variants of: B2
# Test: pull-down (IP: His, immunoblot); with GST-GID1C, with GA3 (GAI in A + A' Forms); parent: 2.41
row,response,Variant
1,7.38 relative anti-MBP band intensity (SLY1 without GST-GID1C and GA3 = 1.00),chain 1 P114L
2,9.37 relative anti-MBP band intensity (SLY1 without GST-GID1C and GA3 = 1.00),chain 1 T128A
3,11.8 relative anti-MBP band intensity (SLY1 without GST-GID1C and GA3 = 1.00),chain 1 H104Y
4,3.88 relative anti-MBP band intensity (SLY1 without GST-GID1C and GA3 = 1.00),chain 1 E138K

# Variants of: B2
# Test: pull-down (IP: His, immunoblot); parent: 1
row,ratio to parent,Variant
1,2.36,chain 1 T128A
2,3.05,chain 1 H104Y
3,1.41,chain 1 G84D

# Variants of: B2
# Test: yeast 2-hybrid; parent: 0.3; read off a plot
# Remark: another data set of the same source
row,response,Variant
1,~110 β-galactosidase units,chain 1 H104Y
2,~100 β-galactosidase units,chain 1 H104F

# Variants of: B2
# Test: yeast 2-hybrid; parent: 0.38; read off a plot
row,response,Variant
1,~0.26 β-galactosidase units,chain 1 K126R
